# According to patent publication US12385058B2, “Herbicide tolerance protein, encoding gene thereof and use thereof” (Beijing Dabeinong Biotechnology Co., Ltd., priority 2018, dated 2025):
# B1: ALT03M3: herbicide tolerant protein, SEQ ID NO: 47; ALT03 mutated at positions 44, 45, 140, 142 and 146 (protein)
# chain: METDNVELAQSKRKVVLAEQGSFYIGGRTVTGPGKFDPSKPVIRASNEGATFYINQMYVNFQAPVRPRGLPLVFWHGGGLTGHIWESTPDGRPGFQTLFVQDRHTVYTIDQPGRGRGNIPTFNGPFGQLEEESIVNTVTANVSKERAWVRDRLGPAPGQFFENSQFPRGYEDNYFKEMGFSPSISSDEIVDAVVKLVTHIGPCVLVTHSASGVLGMRVATHAKNVRGIVAYEPATSIFPKGKVPEIPPLADKKSQIFPPFEIQESYFKKLAKIPIQFVFGDNIPKNPKSAYWFLDWWRVTRYAHSLSLEAINKLGGQASLLDLPTAGLRGNTHFPFTDRNNVQVASLLSDFLGKHGLDQNES
# modifications: The amino acid sequence of the ALT03M3
# B2: ALT03: ALT03 protein (362 amino acids), SEQ ID NO: 35; unmutated herbicide tolerant protein (protein)
# chain: METDNVELAQSKRKVVLAEQGSFYIGGRTVTGPGKFDPSKPVIPYSNEGATFYINQMYVNFQAPVRPRGLPLVFWHGGGLTGHIWESTPDGRPGFQTLFVQDRHTVYTIDQPGRGRGNIPTFNGPFGQLEEESIVNTVTGNSSKEGAWVRDRLGPAPGQFFENSQFPRGYEDNYFKEMGFSPSISSDEIVDAVVKLVTHIGPCVLVTHSASGVLGMRVATHAKNVRGIVAYEPATSIFPKGKVPEIPPLADKKSQIFPPFEIQESYFKKLAKIPIQFVFGDNIPKNPKSAYWFLDWWRVTRYAHSLSLEAINKLGGQASLLDLPTAGLRGNTHFPFTDRNNVQVASLLSDFLGKHGLDQNES
# modifications: the amino acid sequence of ALT03
# B3: ALT02: ALT02 protein (369 amino acids), SEQ ID NO: 19; unmutated herbicide tolerant protein (protein)
# chain: METDNVELAQSKRKVVLAEQGSFYIGGRTVTGPGKFDPSKPVIPYSNEGATFYINQMYVNFQAPVRPRGLPLVFWHGGGLTGHIWESTPDGRPGFQTLFVQDRHTVYTIDQPGRGRGNIPTFNGPFGQLEEESIVNTVTGNSSKEGAWVRDRLGPAPGQFFENSQFPRGYEDNYFKEMGFSPSISSDEIVDAVVKLVTHIGPCVLVTHSASGVLGMRVATHAKNVRGIVAYEPATSIFPKGKVPEIPPLADKKSQIFPPFEIQESYFKKLAKIPIQFVFGDNIPKNPKSAYWFLDWWRVTRYAHSLSLEAINKLGGQASLLDLPTAGLRGNTHFPFTDRNNVQVASLLSDFLGKHGLDQNESKLAAALE
# modifications: the amino acid sequence of ALT02
# B4: ALT04M1: herbicide tolerant protein, SEQ ID NO: 55; ALT04 with glycine to alanine at position 131 (protein)
# chain: MSKRKVVLAEQGSFYIGGRTVTGPGKFDPSKPVIPYSNEGATFYINQMYVNFQAPVRPRGLPLVFWHGGGLTGHIWESTPDGRPGFQTLFVQDRHTVYTIDQPGRGRGNIPTFNGPFGQLEEESIVNTVTANSSKEGAWVRDRLGPAPGQFFENSQFPRGYEDNYFKEMGFSPSISSDEIVDAVVKLVTHIGPCVLVTHSASGVLGMRVATHAKNVRGIVAYEPATSIFPKGKVPEIPPLADKKSQIFPPFEIQESYFKKLAKIPIQFVFGDNIPKNPKSAYWFLDWWRVTRYAHSLSLEAINKLGGQASLLDLPTAGLRGNTHFPFTDRNNVQVASLLSDFLGKHGLDQ
# modifications: the amino acid sequence of the ALT04M1
# B5: ALT04: ALT04 protein (350 amino acids), SEQ ID NO: 51; unmutated herbicide tolerant protein (protein)
# chain: MSKRKVVLAEQGSFYIGGRTVTGPGKFDPSKPVIPYSNEGATFYINQMYVNFQAPVRPRGLPLVFWHGGGLTGHIWESTPDGRPGFQTLFVQDRHTVYTIDQPGRGRGNIPTFNGPFGQLEEESIVNTVTGNSSKEGAWVRDRLGPAPGQFFENSQFPRGYEDNYFKEMGFSPSISSDEIVDAVVKLVTHIGPCVLVTHSASGVLGMRVATHAKNVRGIVAYEPATSIFPKGKVPEIPPLADKKSQIFPPFEIQESYFKKLAKIPIQFVFGDNIPKNPKSAYWFLDWWRVTRYAHSLSLEAINKLGGQASLLDLPTAGLRGNTHFPFTDRNNVQVASLLSDFLGKHGLDQ
# modifications: the amino acid sequence of ALT04
# B6: ALT04M3: herbicide tolerant protein, SEQ ID NO: 63; ALT04 mutated at positions 35, 36, 131, 133 and 137 (protein)
# chain: MSKRKVVLAEQGSFYIGGRTVTGPGKFDPSKPVIRASNEGATFYINQMYVNFQAPVRPRGLPLVFWHGGGLTGHIWESTPDGRPGFQTLFVQDRHTVYTIDQPGRGRGNIPTFNGPFGQLEEESIVNTVTANVSKERAWVRDRLGPAPGQFFENSQFPRGYEDNYFKEMGFSPSISSDEIVDAVVKLVTHIGPCVLVTHSASGVLGMRVATHAKNVRGIVAYEPATSIFPKGKVPEIPPLADKKSQIFPPFEIQESYFKKLAKIPIQFVFGDNIPKNPKSAYWFLDWWRVTRYAHSLSLEAINKLGGQASLLDLPTAGLRGNTHFPFTDRNNVQVASLLSDFLGKHGLDQ
# modifications: the amino acid sequence of the ALT04M3
# B7: ALT04M2: herbicide tolerant protein, SEQ ID NO: 59; ALT04 with serine to valine at position 133 (protein)
# chain: MSKRKVVLAEQGSFYIGGRTVTGPGKFDPSKPVIPYSNEGATFYINQMYVNFQAPVRPRGLPLVFWHGGGLTGHIWESTPDGRPGFQTLFVQDRHTVYTIDQPGRGRGNIPTFNGPFGQLEEESIVNTVTGNVSKEGAWVRDRLGPAPGQFFENSQFPRGYEDNYFKEMGFSPSISSDEIVDAVVKLVTHIGPCVLVTHSASGVLGMRVATHAKNVRGIVAYEPATSIFPKGKVPEIPPLADKKSQIFPPFEIQESYFKKLAKIPIQFVFGDNIPKNPKSAYWFLDWWRVTRYAHSLSLEAINKLGGQASLLDLPTAGLRGNTHFPFTDRNNVQVASLLSDFLGKHGLDQ
# modifications: the amino acid sequence of the ALT04M2
# Key:
# [1] = type: biochemical; conditions: for specific enzyme activity, bensulfuron-methyl / specific enzyme activity, chlorimuron-ethyl / specific enzyme activity, metsulfuron-methyl / specific enzyme activity, thifensulfuron-methyl / specific enzyme activity, tribenuron-methyl: 0.2 μg enzyme, 0.2 mM substrate, pH 7.0, 30° C., 20 min
# Experimental: (§1) Each reaction was timed beginning with the addition of reactive enzyme, and was terminated with 1 mL of dichloromethane. The organic phase after delamination was dehydrated with anhydrous sodium sulfate.
# (§2) The above dehydrated reaction solution was blown dry with nitrogen and filtered by adding 1 mL of methanol, and 20 μL of the filtrate was subjected to liquid chromatography-mass spectrometry (LC-MS). High performance liquid chromatography (HPLC) conditions were as follows: mobile phase being methanol:water (80:20, V/V), Zorbax XDB-C18 chromatographic column (3.5 μm, 2.1×50 mm, Agilent, USA), column temperature being room temperature, UV detector, with a detection wavelength of 255 nm, a sample injection volume of 20 μL, and a flow rate of 0.25 mL/min. The primary ion mass spectrometry conditions were as follows: ion detection mode being multi-reactive ion detection; ion polarity being negative ion; ionization mode being electrospray ionization; a capillary voltage of 4000 volts; a dry gas temperature of 330° C., a flow rate of 10 L/min, an atomizing gas pressure of 35 psi, a collision voltage of 135 volts; and a mass scan range of 300-500 m/z. The secondary ion mass spectrometry conditions were as follows: a collision voltage of 90 volts; a mass scanning range of 30-400 m/z, and other conditions being the same as those of the primary ion mass spectrometry. It was identified by LC-MS that the metabolite of thifensulfuron-methyl was thiophene sulfonic acid, and the metabolite of metsulfuron-methyl, chlorimuron-ethyl, bensulfuron-methyl, sulfometuron-methyl or tribenuron-methyl was its corresponding sulfonic acid. The amount of the generated thiophene sulfonic acid (metabolite) was detected using high performance liquid chromatography (HPLC).
# [2] = Degradation of sulfometuron-methyl by purified herbicide tolerant proteins (enzymatic activity, HPLC); type: biochemical; conditions: 0.2 μg enzyme, 0.2 mM substrate, pH 7.0, 30° C., 20 min
# Experimental: as §1, §2
Molecule,"efficiency of degrading chlorimuron-ethyl, fold of ALT03 [1] [fold]","efficiency of degrading chlorimuron-ethyl, fold of ALT04 [1] [fold]","efficiency of degrading metsulfuron-methyl, fold of ALT03 [1] [fold]","efficiency of degrading metsulfuron-methyl, fold of ALT04 [1] [fold]","specific enzyme activity, bensulfuron-methyl [1] [µmol/min/mg]","specific enzyme activity, chlorimuron-ethyl [1] [µmol/min/mg]","specific enzyme activity, metsulfuron-methyl [1] [µmol/min/mg]","specific enzyme activity, thifensulfuron-methyl [1] [µmol/min/mg]","specific enzyme activity, tribenuron-methyl [1] [µmol/min/mg]","specific enzyme activity, sulfometuron-methyl [2] [µmol/min/mg]","efficiency of degrading bensulfuron-methyl, fold of ALT04 [1] [fold]","efficiency of degrading thifensulfuron-methyl, fold of ALT04 [1] [fold]"
B1,13.0,12.4,1.9,1.8,0.6,36.5,4.0,16.9,3.1,1.0,–,–
B2,–,–,–,–,1.6,2.6,1.9,26.0,1.7,1.8,–,–
B3,–,–,–,–,1.8,2.8,2.1,28.8,1.9,2.0,–,–
B4,–,–,–,–,3.5,9.4,2.0,80.9,2.8,4.9,1.9,2.8
B5,–,–,–,–,1.5,2.4,1.8,24.7,1.6,1.7,–,–
B6,–,–,–,–,0.6,34.6,3.8,16.0,3.0,1.0,–,–
B7,–,–,–,–,2.2,8.1,1.1,95.4,9.7,3.2,1.2,3.3
